# Measured values published in the RNAGym collection of RNA variant scans (doi:10.1073/pnas.2313332121).
# B1: TPR t1 (parent)
# chain: GACCAAUCUGCCCUCAGAGCUCGAGAACAUCUUCGGAUGCAGAGGAGGCAGGCUUCGGUGGCGCGAUAGCGCCAACGUCCUCAACCUCCAAUGCAUCCCACCACAUGAUGAUGCCUGAAGAGCCUUGGUUUUUUG
# Variants of: B1
# Experiment: polymerase ribozyme fitness, log enrichment relative to wild type (log ratio); higher = more active; in vitro selection for triplet polymerase activity
# Method in brief: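 Fitness measures genotype enrichment against wild-type enrichment on a logarithmic scale, with inverse-variance-weighted averaging of replicates. The logarithm is base 2, and genotypes were kept only with ≥10 input reads and ≥1 read per output in Illumina sequencing. The sequenced libraries came from one triplicate in vitro selection round, including frozen incubation at −7 °C, of PCR-built, transcribed mutant libraries of each subunit of a heterodimeric triplet polymerase ribozyme.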
row,Variant,polymerase ribozyme fitness (log ratio)
1,GACCAAUCGGCCCUCAGAGCUCGAGAACAUCUUCGAAUGCAGAGGAGGCAGGCUUCGGUGGCGCGAUAGCGCCAACGUCCUCAACCUCCAAUGCAUCCCAGCACAUGAUGAUGCCUGAAGUGCCUUGGUUUUUUG [U9G G36A C101G A121U],-0.24
2,GACCAAUCGGCCCUCAGAGCUCGAGAACAUCUUCGGAUGCAGAGGAGGCAGGCUUCGGUGGGGCGAUAGCGCCAACGUCCUCAACCUCCAAUGCAUCCCACCACAUGAUGAUGCCUGAACAGCCUUGGUUUUUUG [U9G C62G G120C],0.877
3,GACCAAUCGGCCCUCAGAGCUUGAGAACAUCUUCGGAUGCAGAGGAGGCAGGCGUCGGUGGCGCGAUAGCGCCAACGUCCUCAACCUCCAAUGCAUCCCACCAUAUGAUGAUGCCUGAAGAGCCUUGGUUUUUUG [U9G C22U U54G C104U],-4.59
4,GACCAAUCGGCCCUCAAUGCUCGAGAACAUCUUCGGAUGCAGAGGUGGCAGGCUUCGGUGGCGCGAUAGCGCCAACGUCCUCAGCCACCAAUGCAUCCCACCACAUGAUGACGCCUGAAGAGCCUUCGUUUUUAG [U9G G17A A18U A46U A84G U87A U112C G127C U134A],-2.66
5,GACCAAUCGGCCCUCAGAGCUCGAGAACAUCUUCGGAUGGAGAGGAGGCAGGCUUCGGUGGCGCGAUAGCGCCAACGUCCUCAACCUCCAAUGCAUCCCACCACAUGAUUAUGCCUGAAGAGGCUUGGUUUUUUG [U9G C40G G110U C123G],-4.98
6,GACCAAUCGGCCCUCAGAGCUCGAGAACAUCUUCGGAUGCAGAGGAGGCAGGUUUCGGUGGCGCGAUAGCGCCAACGUCCUCAACCUCCAAUGCAUCCCACCACAUCAUGAUGCCUGAAGAGCCUUGGUUUUUUG [U9G C53U G107C],-5.76
7,GACCAAUCGGCCCUCAGAGCUCGAGAACAUCUUCGGAUGCAGAGGAGGCAGGCUUCGGUGGCGCGAUAGCGCCAACGUCCUCAACCUCUAAUGCAUCCCACCACAUGAUGAUGCCUGAAGAGCCUUGGUUUUUUG [U9G C89U],0.304
8,GACCAAUCGGCCCUCAGAGCUCGAGAACAUCUUAGGAUGCAGAGGAGGCAGGCUUCGGUGGCGCGAUAGCGCCAACGUCCUCAACCUCCAAUGCAUCCCACCACAUGAUGAUGCCUGAACAGCCUUGGUUUUUUG [U9G C34A G120C],-0.929
9,GACCAAUCGGCCCUCAGAGCUCGAGAACAUCUUCGUAUGCAGAGGAGGCAGGCUUCUGUGGUGCGAUAGCGCCAACGUCCUCAACCUCCAAUGCAUCCCACCACAUGAUGAUGCCUGAAGAGCCUUGGUUUUUUG [U9G G36U G57U C62U],-1.11
10,GACCAAUCGACCCGCAGAGCUCGAGAACAUCUUCGGAUGCAGAGGGGACAGGCUUCGGUGGCGCGGUAGCGCCAACGUCCUCAACCUCCAAUGCAUCCCACCACAUGAUGAUGCCUGAAGAGCCUUGGUUUUUUG [U9G G10A U14G A46G G48A A66G],-2.94
11,GACCAAUCGCCCCUCAGAGCUCGAGAACAUCUUCGGAUGCAGAGGAGGCAGGCUUCGGUGGCGCGAUAGCGCCAACGUCCUCAACCUCCAAUGGAUCCCACCACAUGAUGAUGCCUGAAGCGCGUUGGUUUUUUG [U9G G10C C94G A121C C124G],1.48
12,GACCAAUCGGCCCUCAGAGCUCGAGAAUAUCUUCGGAUGCAGAGGAGGCAGGCUUAGGUGGCGCGAUAGCGCCAACGUCCUCAACCUCCAAUGCAUCCCACCACAUGAUGAUGUCUGUAGAGCCGUGGUUUAUUG [U9G C28U C56A C114U A118U U125G U132A],-5.4
13,GACCAAUCGGCCCUCAGAGCUCGAGAACAUCUUCGGAUCCAUAGGAGGCAGGCUUCGGUGGCGUGAUAGCGCCAACGUCCUCAACCUCCAAUGCAUCCCACCACAUGAUGAUGCCUGAAGAGCCUUGGUUUUUUG [U9G G39C G42U C64U],-2
14,GACCAAUCGCACCUCAGAGCUCGAGAACAUCUUCGGAUGCAGAGGAGGCAGGCUUCGGUGGCGCGAUAGCGCCAACGUCCUCAACCUCUAAUGCAUCCCACCUCAUGAAGAUGCCUGAAGAGCCUUGGUUUUUUG [U9G G10C C11A C89U A103U U109A],-5.83
15,GACCAAUCGGCCCUCAGAGCUCGAGAACAUCUUCGGAUGCAGAGGAGGCAGGCUUCGGUGGCGCGAUAGAACCAACGUCCUCAACCUCCAAUGCAUCCCACCACAUGAUGAUGCCUGAAGAGCCUUCGUUUUUUG [U9G C70A G71A G127C],-4.46
16,GACCAAUCGGCCCUCAGAGCUCGAGAACAUUUUCGGAUGCAGAGGAGGCAGGCUUCGGUGGCGCGAUAGCGCCAACGUCCUCAACCUCCAAUGCAUCCCACCACAUGAUGAUGCCUGAAGAGCCUUGGUUUUUUG [U9G C31U],-4.02
17,GACCAAUCGGCCCUCAGAGCUCGAGAACAUCUUCGGAUGCAGAGGAGGCAGGCUUCGGUGGCGCGAUAGAGCCAAUGUCCUCAACCUCCAAUGCAUCCCACCACAUGAUGAUGCCUGAAGAGCCUUGGUUUUUUG [U9G C70A C76U],-3.45
18,GACCAAUCGGCCCUCAGAGCUCGAGAACAUCUUCGGAUGCAAAGGAGGCAGGCUUCGGUGGCGCGAUAGCGCCAACGUCCUCAACCUCCAAUGCAUCCCACCACUUGAUGAUGCCUGAAGAGCCUUGGUUUUUUG [U9G G42A A105U],-4.37
19,GACCAAUCGGCCCUCAGAGCUCGAGAACAUCUUCGGAUACAGAGGAGGCAGGCUUUGGUGGCGCGAUAGCGCCAACGUCCUCAACCUCCAAUGCAUCCCACCACAUGAUGAUGCCUGAAGAGCCUUGGUUUUUUG [U9G G39A C56U],0.0691
20,GACCAAUCGGCCCUCAGAGCUCGAGAACAUCUUCGGAUGCAGAGGAGGCAGGCUUCGGUGGCGCGAUAGCGACAACGUCCUCAACCUCCAAUGCAUCCCACCACAUGAUGAUGCCUGAAGAGCCUUGGUUUUUUG [U9G C72A],-0.48
21,GACCAAUCGCACCUAAGAGCUCGAGAACAUCUUCGGGUGCAGAGGAGGCAGGCUUCGGUGGCGCGAUAGCGCCAACGCCCUCAAUCUCCAAUGCUUCCCACCACAUGAUGAUGCCUGAAGAGUCUUGGUUUUUUG [U9G G10C C11A C15A A37G U78C C85U A95U C123U],-3.97

row,Variant,polymerase ribozyme fitness (log ratio)
1,GACCAAUCGGCCCUCAGAGCUCGAGAACAUCUUCGGAUGCAGAGGAGGCAGGUUUCGGUGCCGCGAUAGCGCCAACGUCCUCAACCUCCAAUGCAUCCCACCACAUGAUGAUGCCUGAAGAGCGUUGGUUAUUUG [U9G C53U G61C C124G U131A],1.49
2,GACCAAUCGGCCCUCAGAGCUCGAGAACAUCUUCGGAUGCAGAGGAGGCAGGCUUCGGUGGUGCGAUAGCGCCAACGUCCUCAACCUCCAAUGCAUCCCACCACAUGAUGAUGCCUGAAGAGCCUUGGUUUUUUG [U9G C62U],-0.19
3,GACCAAUCGGCCCUCAGAGCUCGAGAACAUUUUCGGAUGCAGAGGAGGCAGGCUUCGGUGGCGCGAUAGCGCCAACGUCCUCAACCUCCAAUGGAUCCCACCACAUGAUGAUGCCUGAAGAGCCUUGGUUUUUUG [U9G C31U C94G],-6.42
4,GACCAAUCGGCCCUCAGAGCUCGAGAACAUCUUAGGAUGCAGAGGAGGCAGGCUUCGGUGGCGCGAUAGCGCCAACGUCCUCAACCUCCAAUGCAUCCCACCACAUGAUGAUGCCUGAAGAGCCUUGGUUUUUUG [U9G C34A],-1.59
5,GACCAAUCGGCCCUCAGAGCUCGAGAACAUCUUUGGAUGCAGAGGAGGCAGGCUUCGGUGGCGCGAUAGCGCCAACGUCCUCAACCUCCAAUGCAUCCCACCACAUGAUGAUGCCUGAAGAGCCUUGGUUUUUUG [U9G C34U],-3.92
6,GACCAAUCGGCCCUCAGAGCUCGAGAACAUCUUGGGAUGCAGAGGAGGCAGGCUUCGGUGGCGCGAUAGCGCCAACGUCCUCAACCUCCAAUGCAUCCCACCACAUGAUGAUGCCUGAAGAGCCUUGGUUUUUUG [U9G C34G],-4.16
7,GACCAAUCGGCCCUCAGAGCUCGAGAACAUCUUCGGAUGCAGAGGAGGCAGGCUUCGGUGGCGCGAUAGCGCCAACGUCCUCAACCUCCAAUGCAUCCCACCACAUGAUGAUGCGUGAAGAGCCUUGGUUUUUUG [U9G C115G],1.35
8,GACCAAUCGGCCCUCAGAGCUCGAGAACAUCUUCGGAUGCAGAGGAGGCAGGCUUGGGUGACGCGAUAGCGCCAACGUCCUCAACCUCCAAUGCAUCCCACCACAUGAUGAUGCCUGAAGAGCCUUGGUUUUUUG [U9G C56G G61A],-2.17
9,GACCAAUCGGCCCUCAGAGCUCGAGAACAUCUUCGUAUGCAGAGGAGGCAGGCUUCGGUCGCGCGAUGGCGCCAACGACCUCAACCUACAAUGCAUCCCACCACAUGAUGAUGCCUGAAGAGCCUUGGUUUUUUG [U9G G36U G60C A68G U78A C88A],-6.1
10,GACCAAUCGGCCCUCAGAGCUCGAGAACAUCUUCGGAUGCAGAGGAGGCAGGCUUCGGUGGCGCGAUAGCGCCAACGUCCUCAACCUCCAAUGCAUACCACCACAUGAUGAUGCCUGAAGAGCCUUGGUUUUUUG [U9G C97A],-4.53
11,GACCAAUCGGCCCUCAGAGCUCGAGAACAUCUUCGGAUACAGAGGAGGCAGGCUUCGGUGGCGCGAUAGCGCCAACGUCCUCAACCUCCAAUGCAUCCCACCACAUGAUGAUGCCUGAAGUGCCUUGGUUCUUUG [U9G G39A A121U U131C],2.2
12,GACCAAUCGGCCCUCAGAGCUCGAGAACAUCUUCGGAUGCAGAGGAGGCAGGCUUCGGUGGCGCGAUAGCGCCAACGUCAUCAACCCCCAAUGCAUCCCACCACAUGAUGAUGUCUGAAGAGCCUUGGUUUUUUG [U9G C80A U87C C114U],-4.36
13,GACCAAUCGGCCCUCAGAGCUCGAGAACAUCUUCGGAUGCAGAGGAGGCAGGCUUCGGUGGCGCGAUAGCGCCAACGUCCUCAACCUCCAAUGCAUCCCACCACAUGAUGAUGCCUGAAGAGUCUUGGUUUUUUG [U9G C123U],0.831
14,GACCAAUCGGCCCUCAGAGCUCGAGAACAUCUUCGGAUGCAGAGGAGGCAGGCUUCGGUGGCGCGAUAGCGCCAACGUCCUCAACCUCCAAUGCAUCCCACCACAUGAUGAUGCCUGAAGAGGCUUGGUUUUUUG [U9G C123G],1.31
15,GACCAAUCGGCCCUCAGAGCUCGAGAACAUCUUCGGAUGUAGAGUAGGCAGGCUUCGGUGGCGCGAUAGCGCCAACGUCCUCAACCUCCAAUGCAUCCCACCACAUGAUGAUGCCUGAAGAGCCUUGGCUUUUUA [U9G C40U G45U U129C G135A],-3.12
16,GACCAAUCGGCCCUCAGAGCUCGAGAACAUCUUCGGAUGCAGAGGAGGCAGGCUUCGGUGGCGCGAUAGCGCCAACGUCCUCAACCUCCAAUGCAUCCAACCACAUGAUGAUGCCUGAAGAGCCUUGGUUUUUUG [U9G C99A],-5.82
17,GACCAAUCGGCCCUCAGAGCUCGAGAACAUCUUCGGAUGAAGAGGAGGCAGGCGUCGGUGGCGCGAUAGCGCCAACGUCCGCAAACUCCAAUGCAUCCCACCACAUGAUGAUGCCUGAAGAGGCUUGGUUUUUUG [U9G C40A U54G U81G C85A C123G],-5.22
18,GACCAAUCGGCCCUCAGAGCUCGAGAACAUCUUCGGAUGCAGAGGAGGCAGGCUUCGGUGGCGCGAUAGCGCCAACGUCCUCAACCUCCAAUGCAUCCCACCACAUGAUGAUGCCUGAAGAGCAUUGGUUGUUUG [U9G C124A U131G],1.79
19,GACCAAUCGGCCCUCAGAGCUCGAGAACAUCUUCGGAUGCAGAGGAGGCAGGCUUUGGUGUCGCGAUAGCGCCAACGUCCUCAACCUCCAAUGCAUCCCACCACAUGAUGAUGCCUGAAGAGCCUUGGUUUUUUG [U9G C56U G61U],-4.53
20,GACCAAUCGGCCCUCAGAGCUCGAGAACAUCUUCGGAUGCAGAGGAGGCAGGCUUCGGUGGCGCGAUAGCGCCAACGUCCUCAAUCUCCAAUGCAUCCCACCACAUGAUGAUGCCUGAAGAGCCUUGGUUUUUUG [U9G C85U],-0.222
21,GACCAAUCGGCCCUCAGAGCUCGAGAACAUCUUCGGAUGCAGAGGAGGCAGGCUUCGGUGGCGCGAUAGCGCCAACGUCCUCAACCUCCAAUGCAUCCCACCAUAUGAUGAUGCCUGAAGAGCCUUGGUUUUUUG [U9G C104U],0.944
